B1: His-tagged HspR (C. jejuni) (natural protein, UniProt Q0P926 1-124, looked up)
chain: MEQHYDEPVYLISVVAKVLSIHPQTLRQYEREGLIEPSRTDGKIRLYSQRDIDRIKLILRLTRDMGINLAGVDVILKLKNQLHEFENLIDELRLELSKQQDKEAASKAVVKHKNSFDLIFYEKK
notes: HspR heat-shock transcriptional repressor of Campylobacter jejuni; Probably strain NCTC11168, the only C. jejuni strain named; also called His-HspR; recombinant His-tagged HspR; source: E. coli BL21 (DE3), pET15b-hspR, purified (Ni2+-NTA)
B2: His-tagged HrcA (C. jejuni) (natural protein, UniProt Q9PPG2 1-264, looked up)
chain: MMKSRDKKDLILESIIQTYLLDNAPIGSNELNSNLCIPASTIRVYLKRLSDEGLITQLHISSGRIPTILTMQNYWQNFWEKEQDKNIHIKNESFLKELSKEFEIYCLVYGGRSLVLKEVLDLNTKFIVLDFEDEELVLKYEKEAWNFLQSLIGLDLSSIEKIALRVHFIDLVEKIASLRQNLICYRSNEERAYQIYQNDEFVKLLDCQIHRHFKESLEFEPLFKEGFMGLKVDAQFLGEDVNIILAGSVYTDYKKILQYIKEAA
notes: HrcA heat-shock transcriptional repressor of Campylobacter jejuni; it could also have been GST-HrcA; also called His-HrcA; recombinant HrcA protein; source: E. coli BL21 (DE3), pET15b-hrcA, purified (Ni2+-NTA)

Biological target: the molecule itself
Assay: cross-linking; in vitro chemical cross-linking of HrcA and HspR proteins with formaldehyde (Figure S2)

Protein	stoichiometry N
B1	2
B2	2

Reference: paper PMC7464140, “Cooperative Regulation of Campylobacter jejuni Heat-Shock Genes by HspR and HrcA” (Microorganisms, 2020)
